Test results from patent publication US20150320860A1 (published 2015).
Where a chain is given by its changes, count along the chain named. Each block holds one binder with its values, some of them ahead of it.

Assays:
[1] = target: T1, Aβ-derived diffusible ligands (ADDLs), soluble oligomers of synthetic Aβ1-42 (UniProt P05067 672-713); experiment: one-sided ELISA, Aβ oligomers coated at 50 pmol/well (FIG. 7A)
T1 construct: domain: Aβ1-42; number of copies is not fixed; also called synthetic ADDLs; Aβ oligomers
Experimental: (§1) EC₅₀ represents the half-maximal total Aβ oligomer binding. […] Next day, plates were washed five times with PBS+0.05% TWEEN 20 and blocked overnight with casein blocking buffer (Thermo Scientific, Waltham, Mass.) and 0.05% TWEEN 20. […] After two hours at room temperature incubation, the plates were washed and alkaline phosphatase-conjugated anti-human IgG (ThermoScientific, Waltham, Mass.) was added at 0.08 μg/ml. After incubation for 45 minutes at room temperature, the plates were washed and TROPIX CDP star (Applied Biosystems, Foster City, Calif.) was added. Luminescence was detected after […] on an ENVISION plate reader (PerkinElmer, Waltham, Mass.). Curve fits were completed using GraphPad Prism (GraphPad Software, Inc., San Diego, Calif.) software.

Aβ1-40 monomer [2] = target: T2, Aβ1-40 monomer (UniProt P05067 672-711); experiment: one-sided ELISA, Aβ1-40 coated at 100 pmol/well (FIG. 7A)
T2 construct: domain: Aβ1-40; also called Aβ40; monomer Aβ (Aβ1-40)
Experimental: as §1

Aβ1-40 monomer [3] = target: T2, Aβ1-40 monomer; experiment: ELISA on coated antigen, chemiluminescence; antibody stored at 25°, 1 month
Experimental: (§2) High protein binding plates (Costar, Corning, Lowell, Mass.), were coated with target ligand in PBS overnight at 4° C. […] One the next day, plates were washed five times with PBS+0.05% TWEEN 20 (Sigma Aldrich, St. Louis, Mo.) and blocked overnight with casein blocking buffer (Thermo Scientific, Waltham, Mass.) and 0.05% TWEEN 20. […] After 2 hours at room temperature incubation, the plates were washed and alkaline phosphatase-conjugated anti-human IgG (ThermoScientific, Waltham, Mass.) was added at 0.08 μg/ml. After 45 minutes at room temperature incubation, the plates were washed and TROPIX CDP-Star chemiluminescent substrate (LIFE TECHNOLOGIES, Carlsbad, Calif.) was added. Luminescence was detected after 30 minutes on an ENVISION microplate reader (PerkinElmer, Waltham, Mass.). Curve fits were completed using […] PRISM software (GraphPad Software, Inc., San Diego, Calif.).

[4] = target: T3, biotinylated ADDLs (bADDLs) (UniProt P05067 672-713, N-terminal biotin); experiment: as above
T3 construct: domain: Aβ1-42; Oligomer mixture; copies not fixed
Experimental: as §2

Aβ1-40 monomer [5] = target: T2, Aβ1-40 monomer; experiment: ELISA on coated antigen, chemiluminescence; antibody stored at 4°, 1 month
Experimental: as §2

[6] = target: T3, biotinylated ADDLs (bADDLs); experiment: as above
Experimental: as §2

Aβ1-40 monomer [7] = target: T2, Aβ1-40 monomer; experiment: ELISA on coated antigen, chemiluminescence; antibody stored at 40°, 1 month
Experimental: as §2

[8] = target: T3, biotinylated ADDLs (bADDLs); experiment: as above
Experimental: as §2

[9] = target: T1, Aβ-derived diffusible ligands (ADDLs), …; experiment: three-pronged sandwich ELISA (Aβ forms captured by polyclonal M90/1), single antibody concentration; signal on ADDLs over signal on fibrillar Aβ
Experimental: (§3) ELISA. […] Monoclonal antibodies diluted in BSA/TBS were incubated for 90 minutes at room temperature and detected with a VECTASTAIN® ABC kit to mouse IgG. The HRP label was visualized with BIO-RAD peroxidase substrate and read at 405 nm on a Dynex MRX-TC microplate reader.

[10] = target: T1, Aβ-derived diffusible ligands (ADDLs), …; experiment: one-sided ELISA (FIG. 7A)
Experimental: as §1

Aβ1-40 monomer [11] = target: T2, Aβ1-40 monomer; experiment: KINEXA, equilibrium constant in solution
[12] = target: T1, Aβ-derived diffusible ligands (ADDLs), …; experiment: KINEXA, equilibrium constant in solution
[13] = target: T1, Aβ-derived diffusible ligands (ADDLs), …; experiment: competitive ELISA
Experimental: The plates were incubated for one and half hours at room temperature. Both detection of residual antibody binding and the EC₅₀ calculations were determined as in the one-sided ELISA assay.

[14] = target: T3, biotinylated ADDLs (bADDLs); experiment: cell-based assay: antibody pre-incubated with 500 nM bADDLs, block of bADDL binding to primary neurons
Experimental: (§4) As a control, the same concentration of heat-denatured antibody (98° C. for […]) was mixed with bADDLs. The antibody-bADDL mixtures were incubated in siliconized microcentrifuge tubes (Fischer Scientific, Pittsburgh, Pa.) at 37° C. for one hour with constant end-to-end rotation at a low speed. The mixtures were then applied to primary hippocampal and/or cortical cultures and incubated at 37° C. for one hour. The incubation was terminated by removing the culture medium. Cells were subjected to fixation and post-fixation treatments. Cells were then incubated with streptavidin conjugated with alkaline phosphate (AP) at 4° C. overnight, washed five times with PBS and reacted with the TROPIX CDP-Star chemiluminescent substrate (Life Technologies, Carlsbad, Calif.) at room temperature for 30 minutes. The bADDL binding intensity was measured and recorded with an ENVISION microplate reader (PerkinElmer, Waltham, Mass.).

Aβ1-42 monomer = target: T4, Aβ1-42 monomer (UniProt P05067 672-713); experiment: ELISA; IgG2
T4 construct: domain: Aβ1-42

[15] = target: T1, Aβ-derived diffusible ligands (ADDLs), …; experiment: ELISA; IgG2
Aβ1-40 monomer [16] = target: T2, Aβ1-40 monomer; experiment: ELISA on coated antigen, chemiluminescence; antibody at 0 timepoint
Experimental: as §2

[17] = target: T3, biotinylated ADDLs (bADDLs); experiment: as above
Experimental: as §2

[18] = target: T3, biotinylated ADDLs (bADDLs); experiment: cell-based assay: antibody pre-incubated with 500 nM bADDLs in the presence of excess Aβ monomer, block of bADDL binding to primary neurons
Experimental: as §4

[19] = target: T1, Aβ-derived diffusible ligands (ADDLs), …; experiment: three-pronged sandwich ELISA (Aβ forms captured by polyclonal M90/1), single antibody concentration; signal on ADDLs over signal on monomer Aβ
Experimental: as §3

[20] = target: T1, Aβ-derived diffusible ligands (ADDLs), …; experiment: KINEXA; constant for Aβ1-40 over constant for ADDLs
[21] = target: T1, Aβ-derived diffusible ligands (ADDLs), …; experiment: BIACORE (SPR); affinity for Aβ1-40 over affinity for ADDLs
Aβ1-40 monomer [22] = target: T2, Aβ1-40 monomer; experiment: BIACORE (SPR)
[23] = target: T1, Aβ-derived diffusible ligands (ADDLs), …; experiment: BIACORE (SPR)

B1: anti-ADDL antibody 19.3 (antibody, V domains shown)
VH: EVQLVESGGGLVQPGGSLRLSCAASGFTFSSFGMHWVRQAPGKGLEWVAYISRGSSTIYYADTVKGRFTISRDNAKNSLYLQMNSLRAEDTAVYYCARGITTALDYWGQGTLVTVSS
VL: DVVMTQSPLSLPVTPGEPASISCRSSQSIVHSNGNTYLEWYLQKPGQSPQLLIYKASNRFSGVPDRFSGSGSGTDFTLKISRVEAEDVGVYYCFQGSRLGPSFGQGTKLEIKR
notes: copies: 2 + 2
EC50 [1]: ~1.7 nM
EC50 (Aβ1-40 monomer [2]): ~4.3 nM
EC50 (Aβ1-40 monomer [3]): 22.1 nM
EC50 [4]: 2.1 nM
EC50 (Aβ1-40 monomer [5]): 16.3 nM
EC50 [6]: 1.7 nM
EC50 (Aβ1-40 monomer [7]): 88.8 nM
EC50 [8]: 5.9 nM
ADDL:Fibrillar binding ratio [9]: 2
fold greater potency for Aβ oligomers than for Aβ40 monomer [10]: ~3.7 fold
Kd (Aβ1-40 monomer [11]): 16.7 nM
Kd [12]: 2.7 nM
fold higher concentration of Aβ1-40 than of Aβ oligomers needed to displace 50% of 19.3 [13]: ~600 fold
IC50 [14]: 15.4 nM
EC50 (Aβ1-42 monomer): 18 nM
EC50 [15]: 0.8 nM
EC50 (Aβ1-40 monomer [16]): 10.1 nM
EC50 [17]: 1.1 nM
IC50 [18]: 15.3 nM
ADDL:Monomer binding ratio [19]: 2.5
Ratio (Aβ monomer/ADDL) [20]: 6.2
Ratio (Aβ monomer/ADDL) [21]: 31
Kd (Aβ1-40 monomer [22]): 150 nM
Kd [23]: 4.8 nM

B2: antibody 19.3 N33T (antibody, IgG2, V domains shown)
VH: B1 VH
VL: DVVMTQSPLSLPVTPGEPASISCRSSQSIVHSTGNTYLEWYLQKPGQSPQLLIYKASNRFSGVPDRFSGSGSGTDFTLKISRVEAEDVGVYYCFQGSRLGPSFGQGTKLEIL
notes: also called 19.3T33
EC50 [4]: 15.7 nM
EC50 (Aβ1-40 monomer [5]): 307 nM
EC50 [6]: 11.6 nM
EC50 (Aβ1-40 monomer [7]): 96.3 nM
EC50 [8]: 23.5 nM
EC50 (Aβ1-42 monomer): 244 nM
EC50 [15]: 3.1 nM
EC50 (Aβ1-40 monomer [16]): 332 nM
EC50 [17]: 15.5 nM

B5: humanized anti-ADDL antibody h3B3 (antibody, V domains shown)
VH: B1 VH
VL: B2 VL with T33N, R98H, L99V, G100P, S102T, L112K
notes: Parental humanized antibody; also called humanized 3B3; h3B3 (parental)
Kd (Aβ1-40 monomer [11]): 45 nM
Kd (Aβ1-40 monomer [22]): 105 nM

More lines, now with the values ahead:

EC50 (Aβ1-40 monomer [3]): 24.3 nM
EC50 [4]: 12.8 nM
EC50 (Aβ1-40 monomer [5]): 59.1 nM
EC50 [6]: 8.6 nM
EC50 (Aβ1-40 monomer [7]): 29.9 nM
EC50 [8]: 10.1 nM
EC50 (Aβ1-42 monomer): 150 nM
EC50 [15]: 1.7 nM
EC50 (Aβ1-40 monomer [16]): 55.1 nM
EC50 [17]: 7.8 nM
B3: antibody 19.3 N33S (antibody, IgG2, V domains shown)
VH: B1 VH
VL: B2 VL with T33S
notes: also called 19.3S33

EC50 (Aβ1-42 monomer): 28 nM
EC50 [15]: 0.82 nM
B4: antibody 19.3 N33D (antibody, V domains shown)
VH: B1 VH
VL: B2 VL with T33D
notes: Made as a control
